Assay results reported in US20240279341A1 (Alector, published 2024).

Key:
[1] = target: T1, human MerTK overexpressed on CHO cells (human, UniProt Q12866 21-999); test: flow cytometry on CHO-huMerTK OE cells, Dylight650-conjugated antibody; average FACS Kd from Prism fit of MFI
T1 construct: also called CHO-huMerTK OE; CHO-human MerTK OE cells
T1 sequence: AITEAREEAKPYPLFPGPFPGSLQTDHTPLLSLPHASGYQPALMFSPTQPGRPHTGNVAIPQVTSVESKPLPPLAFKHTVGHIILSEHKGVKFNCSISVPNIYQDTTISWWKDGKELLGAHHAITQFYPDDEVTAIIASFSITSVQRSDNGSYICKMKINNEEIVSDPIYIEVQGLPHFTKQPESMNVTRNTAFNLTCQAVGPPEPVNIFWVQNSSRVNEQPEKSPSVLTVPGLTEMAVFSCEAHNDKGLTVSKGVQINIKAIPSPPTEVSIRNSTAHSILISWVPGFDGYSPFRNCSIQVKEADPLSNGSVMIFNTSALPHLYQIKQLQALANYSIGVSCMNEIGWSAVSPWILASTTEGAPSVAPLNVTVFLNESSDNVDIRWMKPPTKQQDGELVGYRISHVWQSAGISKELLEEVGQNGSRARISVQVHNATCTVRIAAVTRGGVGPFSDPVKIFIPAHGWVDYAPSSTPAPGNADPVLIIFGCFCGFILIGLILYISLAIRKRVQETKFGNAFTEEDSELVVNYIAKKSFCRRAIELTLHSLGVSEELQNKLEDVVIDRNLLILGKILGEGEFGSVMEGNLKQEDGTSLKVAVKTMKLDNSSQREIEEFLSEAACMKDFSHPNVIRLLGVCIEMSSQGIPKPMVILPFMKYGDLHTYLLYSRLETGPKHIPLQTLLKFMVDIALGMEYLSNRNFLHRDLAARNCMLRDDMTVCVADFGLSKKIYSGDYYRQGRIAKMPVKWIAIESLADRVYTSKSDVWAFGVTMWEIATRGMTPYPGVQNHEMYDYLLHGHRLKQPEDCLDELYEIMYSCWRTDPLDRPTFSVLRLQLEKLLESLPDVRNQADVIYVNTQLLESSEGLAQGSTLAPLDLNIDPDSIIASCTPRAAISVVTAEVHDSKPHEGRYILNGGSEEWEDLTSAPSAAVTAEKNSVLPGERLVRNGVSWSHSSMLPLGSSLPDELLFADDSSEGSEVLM
From the text: Human macrophages were differentiated from human monocytes for 7 days in the presence of human M-CSF, resulting in M2c-differentiated human macrophages. After 7 days, the differentiated human macrophages were harvested (by scraping), resuspended in PBS, and plated on 96-well plates for use. CHO cells overexpressing human MerTK (CHO-huMerTK OE), CHO cells overexpressing human PDL1 (CHO-huPDL1 OE), and M2c-differentiated human macrophages were stained with Dylight650-conjugated bispecific anti-MerTK:anti-PDL1 antibodies, or bivalent anti-MerTK antibodies for 30 min on ice. A range of antibody concentrations were used in these studies to obtain binding curves. All antibodies tested in these studies were IgG1 having Fc regions comprising LALAPS mutations. Cells were fixed and then acquired on a BD FACS Canto II cytometer. The mean fluorescence intensity (MFI) was calculated using FlowJo software and Kd value was calculated using Prism software.

[2] = target: T2, recombinant human MerTK extracellular domain (human, UniProt Q12866 21-505); test: SPR (Carterra LSA), antibody immobilized, MerTK ECD as analyte; estimate, fits not ideal for a 1:1 model
T2 construct: also called huMerTK; not shown: PolyHis tag or TEVS/Thrombin/murine IgG2a Fc tag (a DDDDK-tagged commercial protein is also mentioned); which form was t
T2 sequence: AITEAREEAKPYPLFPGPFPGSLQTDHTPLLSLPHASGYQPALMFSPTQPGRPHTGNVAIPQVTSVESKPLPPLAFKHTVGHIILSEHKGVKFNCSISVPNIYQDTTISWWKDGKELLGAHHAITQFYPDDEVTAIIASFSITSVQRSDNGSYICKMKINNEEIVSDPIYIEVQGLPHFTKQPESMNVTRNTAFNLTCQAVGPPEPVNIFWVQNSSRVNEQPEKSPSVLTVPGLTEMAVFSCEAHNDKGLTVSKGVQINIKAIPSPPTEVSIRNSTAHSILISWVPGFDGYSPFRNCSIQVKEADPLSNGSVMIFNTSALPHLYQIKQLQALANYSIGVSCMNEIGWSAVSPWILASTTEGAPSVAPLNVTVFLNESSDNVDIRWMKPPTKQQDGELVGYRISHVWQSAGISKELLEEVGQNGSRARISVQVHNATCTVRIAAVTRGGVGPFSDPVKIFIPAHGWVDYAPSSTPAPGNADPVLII
Method: Binding kinetics of bispecific anti-MerTK:anti-PDL1 antibodies of the present disclosure to human, cyno, and murine MerTK were evaluated using a Carterra LSA instrument. […] A HC30 sensor chip (Carterra) was activated using the single channel flow cell with a 7-minute injection of a 1:1:1 mixture of 100 mM MES pH 5.5, 100 mM sulfo-NHS, 400 mM EDC (all reconstituted in MES pH 5.5; 100 μl of each mixed in vial immediately before running assay). After switching to the multi-channel array flow cell, the antibodies were injected over the activated chip in a 96-spot array for 15 minutes. A duplicate injection of the antibodies on a second block of the chip was spotted as before. The remaining unconjugated active groups on the chip were then blocked by injecting 1M Ethanolamine pH 8.5 (Carterra) for 7 minutes using the single channel flow cell.
After priming with running buffer (HBS-TE, Carterra) with 0.5 mg/ml BSA (Sigma), the immobilized anti-MerTK antibodies were tested for their ability to bind to several forms of recombinant MerTK extracellular domain, including that of human, cynomolgus, and mouse orthologs as described above. Estimates of affinity were generated by injecting each analyte over the entire antibody array using the single channel flow cell. […] Dissociation was followed for 300 seconds before regenerating after each injection with 2×30 seconds of 10 mM Glycine pH2.5. Three buffer blanks were run between each series (one species per series). After all concentrations of all three species of MerTK were injected, a duplicate set of injections was performed, so that each concentration for all three species was injected in widely spaced duplicates. Data were processed and analyzed using NextGenKIT high-throughput kinetics analysis software (Carterra).

B1: monovalent anti-MerTK antibody MTK-16.2 (antibody, V domains shown)
VH: QVQLVQSGSELKKPGASVKVSCKASGYTFTNHGMNWVRQAPGQGLEWMGWINTYTGEPTYADDFKGRFVFSLDTSVSTAYLQISSLKAEDTAVYYCARKGVTAARYFDYWGQGTLVTVSS
VL: DIQMTQSPSSLSASVGDRVTITCRASQNVRTAVAWYQQKPGKAPKRLIYLASNRHTGVPSRFSGSGSGTEFTLTISNLQPEDFATYYCLQHWNYPLTFGGGTKLEIK
[1]
  Kd: 40.5 nM
[2]
  Kd: 50 nM

B2: monovalent anti-MerTK antibody MTK-33.11 (antibody, V domains shown)
VH: QVQLVQSGAEVKKPGASVKVSCKASGYTFTSYWMHWVRQAPGQGLEWIGVIDPSDNYINYNQKFQGRVTMTRDTSTSTVYMELSSLRSEDTAVYYCAREAWTRGYFDYWGQGTLVTVSS
VL: DIQMTQSPSSLSASVGDRVTITCQASRSVRNTVAWYQQKPGKAPKLLIYYASNRYTGVPSRFSGSGSGTDFTFTISSLQPEDIATYYCQQDYRSPFTFGQGTKLEIK
[1]
  Kd: 4.97 nM
[2]
  Kd: 2 nM

B3: bispecific anti-MerTK MTK-33.11:anti-PDL1 antibody (bispecific antibody, V domains shown)
VH 1: QVQLVQSGAEVKKPGASVKVSCKASGYTFTSYWMHWVRQAPGQGLEWIGVIDPSDNYINYNQKFQGRVTMTRDTSTSTVYMELSSLRSEDTAVYYCAREAWTRGYFDYWGQGTLVTVSS
VL 1: DIQMTQSPSSLSASVGDRVTITCQASRSVRNTVAWYQQKPGKAPKLLIYYASNRYTGVPSRFSGSGSGTDFTFTISSLQPEDIATYYCQQDYRSPFTFGQGTKLEIK
VH 2: not shown
VL 2: not shown
[1]
  Kd: 3.25 nM
[2]
  Kd: 2 nM

B4: bivalent anti-MerTK antibody MTK-33.11 (full IgG) (antibody, V domains shown)
VH: QVQLVQSGAEVKKPGASVKVSCKASGYTFTSYWMHWVRQAPGQGLEWIGVIDPSDNYINYNQKFQGRVTMTRDTSTSTVYMELSSLRSEDTAVYYCAREAWTRGYFDYWGQGTLVTVSS
VL: DIQMTQSPSSLSASVGDRVTITCQASRSVRNTVAWYQQKPGKAPKLLIYYASNRYTGVPSRFSGSGSGTDFTFTISSLQPEDIATYYCQQDYRSPFTFGQGTKLEIKR
[1]
  Kd: 0.439 nM
[2]
  Kd: 2 nM

B5: bivalent anti-MerTK antibody MTK-16.2 (full IgG) (antibody, V domains shown)
VH: QVQLVQSGSELKKPGASVKVSCKASGYTFTNHGMNWVRQAPGQGLEWMGWINTYTGEPTYADDFKGRFVFSLDTSVSTAYLQISSLKAEDTAVYYCARKGVTAARYFDYWGQGTLVTVSS
VL: DIQMTQSPSSLSASVGDRVTITCRASQNVRTAVAWYQQKPGKAPKRLIYLASNRHTGVPSRFSGSGSGTEFTLTISNLQPEDFATYYCLQHWNYPLTFGGGTKLEIKR
[1]
  Kd: 42.5 nM
[2]
  Kd: 50 nM

B6: bispecific anti-MerTK MTK-16.2:anti-PDL1 antibody (bispecific antibody, V domains shown)
VH 1: QVQLVQSGSELKKPGASVKVSCKASGYTFTNHGMNWVRQAPGQGLEWMGWINTYTGEPTYADDFKGRFVFSLDTSVSTAYLQISSLKAEDTAVYYCARKGVTAARYFDYWGQGTLVTVSS
VL 1: DIQMTQSPSSLSASVGDRVTITCRASQNVRTAVAWYQQKPGKAPKRLIYLASNRHTGVPSRFSGSGSGTEFTLTISNLQPEDFATYYCLQHWNYPLTFGGGTKLEIK
VH 2: not shown
VL 2: not shown
[1]
  Kd: 48.3 nM
[2]
  Kd: 30 nM
